Reference: US20200085917A1

How the values were obtained:
[1] = molecular target: Gnao1_IPI:IPI00115546.4 (mouse) (UniProt P18872); test: GST pull-down, LC-MS/MS
[2] = molecular target: Cyc1_IPI:IPI00132728.2 (mouse) (UniProt Q9D0M3); test: GST pull-down, LC-MS/MS
[3] = molecular target: Mrps33_IPI:IPI00135214.1 (mouse) (UniProt Q9D2R8); test: GST pull-down, LC-MS/MS
[4] = molecular target: Sfxn1_IPI:IPI00115454.3 (mouse) (UniProt Q99JR1); test: GST pull-down, LC-MS/MS
[5] = molecular target: Mrpl43_IPI:IPI00278781.1 (mouse) (UniProt Q99N89); test: GST pull-down, LC-MS/MS
[6] = molecular target: Ociad2_IPI:IPI00112139.1 (mouse) (UniProt Q9D8W7); test: GST pull-down, LC-MS/MS
[7] = molecular target: Tim50 (endogenous, mouse) (mouse) (UniProt Q9D880); test: GST pull-down, LC-MS/MS
[8] = molecular target: Agk_IPI:IPI00113606.2 (mouse) (UniProt Q9ESW4); test: GST pull-down, LC-MS/MS
[9] = molecular target: Fahd1_IPI:IPI00468850.1 (mouse) (UniProt Q8R0F8); test: GST pull-down, LC-MS/MS
[10] = molecular target: Dnajc19_IPI:IPI00111111.5 (mouse) (UniProt Q9CQV7); test: GST pull-down, LC-MS/MS
[11] = molecular target: Snap25_IPI:IPI00125635.1 (mouse) (UniProt P60879); test: GST pull-down, LC-MS/MS
[12] = molecular target: Slc25a10_IPI:IPI00317074.3 (mouse) (UniProt Q9QZD8); test: GST pull-down, LC-MS/MS
[13] = molecular target: Fis1_IPI:IPI00132217.1 (mouse) (UniProt Q9CQ92); test: GST pull-down, LC-MS/MS
[14] = molecular target: Acad8_IPI:IPI00274222.2 (mouse) (UniProt Q9D7B6); test: GST pull-down, LC-MS/MS
[15] = molecular target: Brp44_IPI:IPI00131896.1 (mouse) (UniProt Q9D023); test: GST pull-down, LC-MS/MS
[16] = molecular target: TIM23 complex (mitochondrial inner membrane translocase, mouse forebrain mitochondria) (mouse) (UniProt Q9WTQ8); test: cell-based or functional assay

Sequence of Snap25_IPI:IPI00125635.1 (mouse) (P60879 whole entry): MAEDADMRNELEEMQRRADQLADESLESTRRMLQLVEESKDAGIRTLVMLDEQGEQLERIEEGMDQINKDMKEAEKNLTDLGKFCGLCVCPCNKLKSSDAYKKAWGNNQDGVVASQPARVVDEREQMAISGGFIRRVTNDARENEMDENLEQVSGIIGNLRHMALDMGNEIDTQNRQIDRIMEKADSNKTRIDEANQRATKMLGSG
Sequence of Acad8_IPI:IPI00274222.2 (mouse) (Q9D7B6 21-413 limits assumed): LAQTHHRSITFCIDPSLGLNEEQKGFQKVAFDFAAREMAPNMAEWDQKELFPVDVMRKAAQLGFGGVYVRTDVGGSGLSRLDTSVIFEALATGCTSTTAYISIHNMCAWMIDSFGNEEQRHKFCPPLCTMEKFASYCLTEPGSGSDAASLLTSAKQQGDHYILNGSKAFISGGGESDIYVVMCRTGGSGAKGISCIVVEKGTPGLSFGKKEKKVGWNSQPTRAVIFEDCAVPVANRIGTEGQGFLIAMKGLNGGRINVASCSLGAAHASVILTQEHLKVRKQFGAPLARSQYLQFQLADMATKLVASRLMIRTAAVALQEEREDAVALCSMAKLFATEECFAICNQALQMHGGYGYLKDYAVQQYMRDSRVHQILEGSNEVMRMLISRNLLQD
Sequence of Brp44_IPI:IPI00131896.1 (mouse) (Q9D023 whole entry): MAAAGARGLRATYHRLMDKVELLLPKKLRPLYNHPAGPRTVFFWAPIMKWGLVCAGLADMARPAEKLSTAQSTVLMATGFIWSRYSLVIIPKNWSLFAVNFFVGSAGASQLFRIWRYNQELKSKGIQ
Sequence of Sfxn1_IPI:IPI00115454.3 (mouse) (Q99JR1 2-322 limits assumed): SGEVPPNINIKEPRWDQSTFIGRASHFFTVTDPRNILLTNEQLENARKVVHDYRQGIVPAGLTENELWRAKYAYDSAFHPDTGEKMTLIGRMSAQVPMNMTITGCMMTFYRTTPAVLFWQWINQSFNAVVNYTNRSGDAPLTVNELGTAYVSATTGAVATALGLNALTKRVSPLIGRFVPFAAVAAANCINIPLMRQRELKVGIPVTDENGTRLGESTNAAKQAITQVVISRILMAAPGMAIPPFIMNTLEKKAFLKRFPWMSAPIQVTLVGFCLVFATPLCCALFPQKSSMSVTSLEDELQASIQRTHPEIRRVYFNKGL
Sequence of Mrps33_IPI:IPI00135214.1 (mouse) (Q9D2R8 2-106 limits assumed): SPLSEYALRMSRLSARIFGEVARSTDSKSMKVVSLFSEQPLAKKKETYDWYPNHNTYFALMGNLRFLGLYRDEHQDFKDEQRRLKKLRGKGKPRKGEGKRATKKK
Sequence of Gnao1_IPI:IPI00115546.4 (mouse) (P18872 2-354 limits assumed): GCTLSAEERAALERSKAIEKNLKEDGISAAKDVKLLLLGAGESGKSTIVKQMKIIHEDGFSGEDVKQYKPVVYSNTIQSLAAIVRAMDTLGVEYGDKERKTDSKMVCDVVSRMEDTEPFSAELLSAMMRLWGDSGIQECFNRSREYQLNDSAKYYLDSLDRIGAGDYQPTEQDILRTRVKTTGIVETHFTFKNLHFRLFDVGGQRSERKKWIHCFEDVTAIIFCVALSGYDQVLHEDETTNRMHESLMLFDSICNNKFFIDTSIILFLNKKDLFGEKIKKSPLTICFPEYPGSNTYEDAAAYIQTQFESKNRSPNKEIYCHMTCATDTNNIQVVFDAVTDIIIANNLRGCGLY
Sequence of Tim50 (endogenous, mouse) (mouse) (Q9D880 22-353 limits assumed): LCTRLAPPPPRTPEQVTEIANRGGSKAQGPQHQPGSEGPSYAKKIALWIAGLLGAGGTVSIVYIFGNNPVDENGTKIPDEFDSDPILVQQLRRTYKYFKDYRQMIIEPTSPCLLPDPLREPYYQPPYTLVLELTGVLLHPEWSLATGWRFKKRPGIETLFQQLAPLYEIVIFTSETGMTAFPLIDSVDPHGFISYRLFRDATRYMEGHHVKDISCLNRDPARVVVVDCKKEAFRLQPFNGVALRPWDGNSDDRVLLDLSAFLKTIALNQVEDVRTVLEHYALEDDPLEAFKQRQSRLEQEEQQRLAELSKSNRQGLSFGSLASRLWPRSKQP
Sequence of Dnajc19_IPI:IPI00111111.5 (mouse) (Q9CQV7 2-116 limits assumed): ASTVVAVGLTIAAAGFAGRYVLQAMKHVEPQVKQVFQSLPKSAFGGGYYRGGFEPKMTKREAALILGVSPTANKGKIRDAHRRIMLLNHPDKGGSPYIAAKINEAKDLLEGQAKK
Sequence of Fahd1_IPI:IPI00468850.1 (mouse) (Q8R0F8 25-221 limits assumed): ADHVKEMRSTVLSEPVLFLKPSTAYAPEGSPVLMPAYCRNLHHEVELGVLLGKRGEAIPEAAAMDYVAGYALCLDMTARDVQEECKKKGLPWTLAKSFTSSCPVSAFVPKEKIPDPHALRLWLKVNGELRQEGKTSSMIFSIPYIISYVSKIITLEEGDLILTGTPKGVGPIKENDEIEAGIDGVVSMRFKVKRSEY
Sequence of Mrpl43_IPI:IPI00278781.1 (mouse) (Q99N89 whole entry): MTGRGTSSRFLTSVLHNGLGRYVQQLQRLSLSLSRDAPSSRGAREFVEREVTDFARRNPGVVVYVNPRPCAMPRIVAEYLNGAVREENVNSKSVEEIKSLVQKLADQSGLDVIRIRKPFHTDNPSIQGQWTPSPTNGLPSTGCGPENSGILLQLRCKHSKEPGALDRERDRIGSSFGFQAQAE
Sequence of Cyc1_IPI:IPI00132728.2 (mouse) (Q9D0M3 85-325 limits assumed): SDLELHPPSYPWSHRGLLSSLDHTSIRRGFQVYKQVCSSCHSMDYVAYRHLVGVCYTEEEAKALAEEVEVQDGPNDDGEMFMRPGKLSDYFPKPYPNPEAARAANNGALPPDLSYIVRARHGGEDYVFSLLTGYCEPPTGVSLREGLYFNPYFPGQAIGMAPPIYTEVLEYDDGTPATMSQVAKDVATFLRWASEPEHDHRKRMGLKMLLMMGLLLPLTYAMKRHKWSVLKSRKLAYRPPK
Sequence of Ociad2_IPI:IPI00112139.1 (mouse) (Q9D8W7 whole entry): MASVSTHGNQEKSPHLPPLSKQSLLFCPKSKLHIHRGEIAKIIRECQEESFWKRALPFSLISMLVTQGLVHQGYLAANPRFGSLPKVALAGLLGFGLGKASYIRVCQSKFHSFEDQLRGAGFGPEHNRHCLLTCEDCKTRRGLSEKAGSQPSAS
Sequence of Agk_IPI:IPI00113606.2 (mouse) (Q9ESW4 whole entry): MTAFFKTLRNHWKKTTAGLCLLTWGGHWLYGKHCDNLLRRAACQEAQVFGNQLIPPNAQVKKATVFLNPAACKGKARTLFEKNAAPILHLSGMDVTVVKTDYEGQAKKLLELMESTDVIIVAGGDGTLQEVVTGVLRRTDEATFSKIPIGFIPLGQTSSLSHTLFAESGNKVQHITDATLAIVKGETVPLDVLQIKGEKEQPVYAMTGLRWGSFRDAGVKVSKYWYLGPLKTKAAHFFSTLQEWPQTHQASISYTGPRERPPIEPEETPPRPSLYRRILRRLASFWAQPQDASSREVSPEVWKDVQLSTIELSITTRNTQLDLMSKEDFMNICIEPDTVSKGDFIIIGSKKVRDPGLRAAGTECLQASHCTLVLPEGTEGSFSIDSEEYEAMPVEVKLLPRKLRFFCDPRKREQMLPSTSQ
Sequence of Slc25a10_IPI:IPI00317074.3 (mouse) (Q9QZD8 whole entry): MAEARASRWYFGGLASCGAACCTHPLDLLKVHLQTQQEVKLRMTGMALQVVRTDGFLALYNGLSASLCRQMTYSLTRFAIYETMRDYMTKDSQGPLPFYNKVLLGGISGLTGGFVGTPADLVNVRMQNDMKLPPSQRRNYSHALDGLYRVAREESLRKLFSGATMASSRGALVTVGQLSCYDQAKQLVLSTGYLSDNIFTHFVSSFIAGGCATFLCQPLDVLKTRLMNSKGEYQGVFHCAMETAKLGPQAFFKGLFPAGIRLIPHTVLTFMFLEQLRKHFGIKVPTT
Sequence of Fis1_IPI:IPI00132217.1 (mouse) (Q9CQ92 whole entry): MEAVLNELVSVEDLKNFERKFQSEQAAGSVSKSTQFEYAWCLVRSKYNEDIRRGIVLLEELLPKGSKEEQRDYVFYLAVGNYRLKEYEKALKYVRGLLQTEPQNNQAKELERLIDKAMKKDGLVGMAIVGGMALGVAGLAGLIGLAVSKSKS

Substance: GST-Httex1-97Q (from UniProt P08515 1-218; P42858 1-88)
- No. of total peptides [1]: 3 peptides
- No. of unique peptides [1]: 3 peptides
- No. of total peptides [2]: 1 peptides
- No. of unique peptides [2]: 1 peptides
- No. of total peptides [3]: 1 peptides
- No. of unique peptides [3]: 1 peptides
- No. of total peptides [4]: 2 peptides
- No. of unique peptides [4]: 2 peptides
- No. of total peptides [5]: 1 peptides
- No. of unique peptides [5]: 1 peptides
- No. of total peptides [6]: 3 peptides
- No. of unique peptides [6]: 3 peptides
- No. of total peptides [7]: 3 peptides
- No. of unique peptides [7]: 3 peptides
- No. of total peptides [8]: 1 peptides
- No. of unique peptides [8]: 1 peptides
- No. of total peptides [9]: 1 peptides
- No. of unique peptides [9]: 1 peptides
- No. of total peptides [10]: 1 peptides
- No. of unique peptides [10]: 1 peptides
- No. of total peptides [11]: 1 peptides
- No. of unique peptides [11]: 1 peptides
- No. of total peptides [12]: 1 peptides
- No. of unique peptides [12]: 1 peptides
- No. of total peptides [13]: 2 peptides
- No. of unique peptides [13]: 2 peptides
- No. of total peptides [14]: 1 peptides
- No. of unique peptides [14]: 1 peptides
- No. of total peptides [15]: 5 peptides
- No. of unique peptides [15]: 5 peptides
- reduction of pOTC import into wild-type mouse forebrain mitochondria after incubation with 3 µM GST-Httex1-97Q, compared to control GST [16]: 50%
- reduction of pOTC import into wild-type mouse forebrain mitochondria after incubation with 10 µM GST-Httex1-97Q, compared to control GST [16]: 73%
